Numbering of substitutions follows the chain as printed.
T1: rhIL-1RAcP/Fc Chimera (human, UniProt Q9NPH3 21-359)
T1 construct: also called P013_03; P013-03
T1 sequence (looked up): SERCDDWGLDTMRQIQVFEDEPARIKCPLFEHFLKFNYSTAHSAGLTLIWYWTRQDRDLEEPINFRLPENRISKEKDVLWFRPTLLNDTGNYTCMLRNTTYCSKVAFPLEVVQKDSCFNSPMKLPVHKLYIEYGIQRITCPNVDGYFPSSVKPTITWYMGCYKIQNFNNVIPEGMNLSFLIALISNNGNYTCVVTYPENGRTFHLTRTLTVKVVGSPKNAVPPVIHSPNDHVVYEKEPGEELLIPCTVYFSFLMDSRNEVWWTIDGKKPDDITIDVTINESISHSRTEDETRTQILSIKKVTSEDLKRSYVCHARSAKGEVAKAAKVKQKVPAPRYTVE

T2: mIL1RAcP-Fc (murine, UniProt Q61730 21-359)
T2 construct: also called P013_04; P013-04
T2 sequence (looked up): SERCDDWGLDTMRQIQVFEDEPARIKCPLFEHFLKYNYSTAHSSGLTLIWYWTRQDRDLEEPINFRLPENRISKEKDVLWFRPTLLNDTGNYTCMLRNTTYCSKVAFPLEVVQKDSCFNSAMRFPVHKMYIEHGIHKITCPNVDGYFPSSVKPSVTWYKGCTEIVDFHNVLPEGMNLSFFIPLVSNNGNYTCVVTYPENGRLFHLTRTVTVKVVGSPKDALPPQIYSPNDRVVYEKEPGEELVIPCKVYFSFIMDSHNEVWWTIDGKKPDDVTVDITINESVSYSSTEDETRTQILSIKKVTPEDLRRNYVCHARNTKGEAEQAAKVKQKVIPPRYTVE

T3: human IL-1RAcP on 293T/17-FR cells (human, UniProt Q9NPH3 21-570)
T3 sequence (looked up): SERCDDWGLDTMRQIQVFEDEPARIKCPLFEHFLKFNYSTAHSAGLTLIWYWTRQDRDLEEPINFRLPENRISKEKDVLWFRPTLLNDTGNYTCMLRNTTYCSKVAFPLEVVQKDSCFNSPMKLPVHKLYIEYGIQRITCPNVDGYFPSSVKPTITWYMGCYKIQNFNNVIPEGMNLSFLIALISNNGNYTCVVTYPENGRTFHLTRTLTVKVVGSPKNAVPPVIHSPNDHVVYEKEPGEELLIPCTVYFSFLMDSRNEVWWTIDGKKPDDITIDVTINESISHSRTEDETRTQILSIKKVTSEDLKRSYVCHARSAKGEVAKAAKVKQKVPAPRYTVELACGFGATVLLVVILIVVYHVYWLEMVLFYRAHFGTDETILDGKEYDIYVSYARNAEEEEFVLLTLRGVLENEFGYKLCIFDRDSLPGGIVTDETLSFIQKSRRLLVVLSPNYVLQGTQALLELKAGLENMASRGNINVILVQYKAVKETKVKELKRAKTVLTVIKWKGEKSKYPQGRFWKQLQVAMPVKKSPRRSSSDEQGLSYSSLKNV

B1: P013.S.02.B.G02 (antibody, V domains shown)
VH: QSLEESGGDLVKPGASLTLTCTASGFSLSSGGMTWVRQAPGKGLEWIGYINTGSGRTYYASWAKGRFIISKTSSTTVSLQMTSLTAADTATYFCAGGLPSDLWGPGTLVTVSS
VL: DIVMTQTPSSVEAAVGGTVTIKCQASQSINSRLAWYQQKPGQPPKLLIYDASTLASGVSSRFSGSGTEFTLTISDLESADGATYYCLSHYLTSSSSYGNAFGGGTEVVVK
notes: rabbit monoclonal antibody; also called P013.A.00014.C07
B2: P013.S.01.B.F06 (antibody, V domains shown)
VH: QSVEESGGRLVTPGTPLTLTCTVSGIDLSSDAVGWVRQAPGKGLEYIGIIVSSGETFYASWARGRCTISKTSSTTVDLRITRLTTEDTATYFCARGGPGYSFDTEYAFDPWGPGTLVTVSS
VL: AFEMTQTPASVEVAVGGTVTINCQASQSIGSWLSWYQQKVGQRPKLLISRASTLASGVPSRFKGSGSGTEYTLTISGVQSDDAATFYCQQGATTYDVDNVFGGGTEVVVR
notes: rabbit monoclonal antibody; also called P013.A.00045.E09
B3: P013.S.01.B.C03 (antibody, V domains shown)
VH: QSVEESGGRLVTPGTPLTLTCTVSGIDLSNYAMSWVRQAPGKGLEWIGSVISGGSTYYATWARGRFTISKSSTTVDLKMTSLTTEDTATYFCARGCPGYNGDKYTFDLWGPGTLVTVSS
VL: AFEMTQTPSSVSEPVGGTVTIKCQASQSIYNYLSWYQQKPGQRPKLLIYRASTLASGVPSRFKGSGSGTEFTLTISGVESADAATYYCQQGATSYDIENPFGGGTEVVVK
notes: rabbit monoclonal antibody; also called P013.A.00133.D11
B4: P013.S.01.B.A02 (antibody, V domains shown)
VH: QSVEESGGRLVTPGTPLTLTCTVSGIDLSSYAMGWVRQAPGKGLEYIGVITSSATTYYASWAKGRFTISKTSSTTVDLRVTSLTTEDTATYFCARGGPGYSTNTHYAFDPWGPGTLVTVSS
VL: AFEMTQTPSSVSEPVGGTVTIKCQASQSIYIYLSWYQQKPGQRPKLLIYDASKLASGVPSRFSGSGSGTEFTLTISGVQSDDAATYYCQQGATTYNVDNVFGGGTEVVVK
notes: rabbit monoclonal antibody; also called P013.A.00003.H11
B5: P013.S.02.B.E04 (antibody, V domains shown)
VH: B1 VH with T34S, E45G, R56S, A63V, K64N, I68T
VL: DIVMTQTPSSVEAAVGGTVTIKCQASQSINSRLAWYQQKPGQPPKLLIYSASTLASGVSSRFKGSGSGTEFTLTISDLESADGATYYCLSHYLTSSSSYGDAFGGGTEVVVK
notes: rabbit monoclonal antibody; also called P013.A.00088.A02
B6: P013.S.02.B.H04 (antibody, V domains shown)
VH: QSVEESGGRLVKPDETLTLTCTVSGIDLSSYAMGWVRQAPGKGLEYIGIISSSGRTYYANWAKGRFTISKASSTTVDLKITSPTTEDTATYFCARLITVDYYIYDYFNLWGQGTLVTVSS
VL: AYDMTQTPASVEAAVGGTVTIKCQASQSISSYLSWYQQKPGQPPKLLIYGASTLASGVPSRFKGSGSGTEYTLTISGVESDDAATYYCQQGYSYNNVDNTFGGGTEVVVK
notes: rabbit monoclonal antibody; also called P013.A.00029.F11
B7: P013.S.02.B.D05 (antibody, V domains shown)
VH: QQQLVESGGGLVKPGASLTLTCKASGFSFSSGYYMCWVRQAPGKGLEWIACIGMGSGKTYYASWAKGRFTISKTSSTTVTLQMTSLTAADTATYFCARKDGSGNEHYNLWGPGTLVTVSS
VL: DIVMTQTPASVEAAVGGTVTIRCQASQSISSYLAWYQRKPGQPPKVLIYKASTLASGVSSRFKGSGSGTEYTLTISDLESADAATYYCQQGYASSGVDNVFGGGTEVVVK
notes: rabbit monoclonal antibody; also called P013.A.00086.B09

molecular target: T1, rhIL-1RAcP/Fc Chimera; assay: ELISA, recombinant purified mAb

Row | Binder | EC50
1 | B1 | 0.493 µg/mL
2 | B2 | 0.039 µg/mL
3 | B3 | 0.032 µg/mL
4 | B4 | 0.042 µg/mL

molecular target: T2, mIL1RAcP-Fc; assay: ELISA, recombinant purified mAb

Row | Binder | EC50
5 | B5 | 0.385 µg/mL
6 | B1 | 0.082 µg/mL
7 | B2 | 0.028 µg/mL
8 | B3 | 0.332 µg/mL
9 | B6 | 0.644 µg/mL
10 | B7 | 0.206 µg/mL
11 | B4 | 0.025 µg/mL

molecular target: T3, human IL-1RAcP on 293T/17-FR cells; assay: cell-based or functional assay

Row | Binder | functional reporter gene assay (% inhibition), 0.04 µg/mL mAb | functional reporter gene assay (% inhibition), 0.2 µg/mL mAb | functional reporter gene assay (% inhibition), 1 µg/mL mAb | functional reporter gene assay (% inhibition), 5 µg/mL mAb | primary supernatant functional assay (% inh.), NF-kB luciferase reporter
12 | B5 | 11% | 9% | 8% | -6% | -37%
13 | B1 | -2% | 0% | 5% | 0% | -39%
14 | B2 | 41% | 52% | 68% | 70% | 75%
15 | B3 | 54% | 77% | 84% | 90% | 83%
16 | B6 | 7% | -6% | 15% | 4% | 52%
17 | B7 | 1% | 19% | 20% | 13% | 42%
18 | B4 | 46% | 94% | 95% | 98% | 92%

molecular target: T2, mIL1RAcP-Fc; assay: ELISA, primary supernatant, coated mu-IL-1RAcP-Fc

Row | Binder | mu-IL1RaP ELISA (OD)
19 | B5 | 3.5 OD
20 | B1 | 3.4 OD
21 | B2 | 3.4 OD
22 | B3 | 2.3 OD
23 | B6 | 1.7 OD
24 | B7 | 3.3 OD
25 | B4 | 1.2 OD

molecular target: T1, rhIL-1RAcP/Fc Chimera; assay: ELISA, primary supernatant, coated hu-IL-1RAcP-Fc
Procedure, shortened: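 Plates coated with 0.5 μg/mL Fc-tagged human IL-1RAcP; rabbit B-cell supernatant antibodies detected by peroxidase anti-rabbit IgG Fab2 and TMB, absorbance 450/620 nm. Parallel IL12Rβ1-Fc coating served as counterscreen to exclude tag binders.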

Row | Binder | hu-IL1RaP ELISA (OD)
26 | B5 | 3.6 OD
27 | B1 | 3.6 OD
28 | B2 | 2.8 OD
29 | B3 | 3.2 OD
30 | B6 | 3.2 OD
31 | B7 | 3.2 OD
32 | B4 | 3.5 OD
